What all share (test): fluorescence dot blot
The target of one series is thrombin (UniProt P00734;P00734 328-363;364-622).
Another series has as its target myeloperoxidase (MPO) (UniProt P05164;P05164 165-273;279-745).
Series [1] concerns the target T1, PBP2a (penicillin binding protein 2a), recombinant soluble (Staphylococcus aureus (MRSA)?, UniProt Q7DHH4 25-668).
T1 sequence: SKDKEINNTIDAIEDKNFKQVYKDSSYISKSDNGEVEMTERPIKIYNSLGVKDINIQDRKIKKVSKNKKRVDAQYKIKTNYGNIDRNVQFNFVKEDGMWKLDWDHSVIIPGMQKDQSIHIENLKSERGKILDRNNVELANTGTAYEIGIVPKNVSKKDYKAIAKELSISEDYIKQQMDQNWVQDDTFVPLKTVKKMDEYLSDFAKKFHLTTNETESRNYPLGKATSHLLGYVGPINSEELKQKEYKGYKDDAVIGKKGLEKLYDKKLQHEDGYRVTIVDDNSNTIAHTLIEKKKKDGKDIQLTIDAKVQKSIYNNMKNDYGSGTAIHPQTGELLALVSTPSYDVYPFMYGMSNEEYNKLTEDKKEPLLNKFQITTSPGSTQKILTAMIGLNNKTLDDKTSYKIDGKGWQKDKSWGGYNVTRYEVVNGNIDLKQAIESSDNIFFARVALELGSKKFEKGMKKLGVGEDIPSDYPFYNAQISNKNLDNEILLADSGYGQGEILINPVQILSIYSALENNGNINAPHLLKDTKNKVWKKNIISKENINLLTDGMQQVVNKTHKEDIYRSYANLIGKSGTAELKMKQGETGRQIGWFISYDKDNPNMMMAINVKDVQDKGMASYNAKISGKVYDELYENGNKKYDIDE

Sequence of myeloperoxidase (MPO) (P05164 165-273, chain 1 of 2): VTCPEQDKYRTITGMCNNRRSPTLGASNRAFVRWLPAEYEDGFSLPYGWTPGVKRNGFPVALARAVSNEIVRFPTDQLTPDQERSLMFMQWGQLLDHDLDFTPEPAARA
Sequence of myeloperoxidase (MPO) (P05164 279-745, chain 2 of 2): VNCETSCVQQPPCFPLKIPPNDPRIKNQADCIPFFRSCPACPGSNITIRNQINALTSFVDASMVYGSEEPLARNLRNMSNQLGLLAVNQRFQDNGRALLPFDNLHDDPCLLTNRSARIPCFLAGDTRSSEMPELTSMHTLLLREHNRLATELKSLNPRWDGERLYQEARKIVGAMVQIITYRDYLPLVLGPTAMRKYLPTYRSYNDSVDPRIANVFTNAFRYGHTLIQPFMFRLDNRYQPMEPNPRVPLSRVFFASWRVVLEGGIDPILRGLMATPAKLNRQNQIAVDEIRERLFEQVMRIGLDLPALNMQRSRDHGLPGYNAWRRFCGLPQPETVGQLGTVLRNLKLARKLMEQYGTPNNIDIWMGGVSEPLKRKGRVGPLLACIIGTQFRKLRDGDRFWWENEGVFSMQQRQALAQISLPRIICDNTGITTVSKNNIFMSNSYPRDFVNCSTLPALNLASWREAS

B1: PBP2a-Apt1T1 (ssDNA)
DNA: ATGCCATCCTACCAACCCGGTGTTCGTGTGGGTGTAGAGGGGGCGAAGGATGGC
In general, Kd refers to the constant that tells how readily two partners part at equilibrium. Take B1: the binding result with thrombin and in the series with myeloperoxidase (MPO) was “no binding” each time. Moreover, the Kd in series [1] worked out at 58 ± 11 nM.

The record behind these values is paper PMC12338438.
